Measured values reported in US20020042368A1 (IMMUNEX, published 2002).

B1: ADAM-15dis-Fc (Fc fusion)
chain: TSCGNMFVEPGEQCDCGFLDDCVDPCCDSLTCQLRPGAQCASDGPCCQNCQLRPSGWQCRPTRGDCDLPEFCPGDSSQCPPDVSLGDGEPCAGGQAVCMHGRCASYAQQCQSLWGPGAQPAAPLCLQTANTRGNAFGSCGRNPSGSYVSCTPRDAICGQLQCQTGRTQPLLGSIRDLLWETIDVNGTELNCSWVHLDLGSDVAQPLLTLPGTACGPGLVCIDHRCQRVDLLGAQECRSKCHGHGVCDSNRHCYCEEGWAPPDCTTQLKATSSRSCDKTHTCPPCPAPEAEGAPSVFLFPPKPKDTLMISRTPEVTCVVVDVSHEDPEVKFNWYVDGVEVHNAKTKPREEQYNSTYRVVSVLTVLHQDWLNGKEYKCKVSNKALPAPIEKTISKAKGQPREPQVYTLPPSREEMTKNQVSLTCLVKGFYPSDIAVEWESNGQPENNYKTTPPVLDSDGSFFLYSKLTVDKSRWQQGNVFSCSVMHEALHNHYTQKSLSLSPGK
notes: also called ADAM-15 disintegrin-Fc polypeptide
B2: ADAM-17dis-Fc (Fc fusion)
chain: TSCGNSRVDEGEECDPGIMYLNNDTCCNSDCTLKEGVQCSDRNSPCCKNCQFETAQKKCQEAINATCKGVSYCTGNSSECPPPGNAEDDTVCLDLGKCKDGKCIPFCEREQQLESCACNETDNSCKVCCRDLSGRCVPYVDAEQKNLFLRKGKPCTVGFCDMNGKCEKRVQDVIERFWDFIDQLSINTFGKFLADNRSCDKTHTCPPCPAPEAEGAPSVFLFPPKPKDTLMISRTPEVTCVVVDVSHEDPEVKFNWYVDGVEVHNAKTKPREEQYNSTYRVVSVLTVLHQDWLNGKEYKCKVSNKALPAPIEKTISKAKGQPREPQVYTLPPSRDELTKNQVSLTCLVKGFYPSDIAVEWESNGQPENNYKTTPPVLDSDGSFFLYSKLTVDKSRWQQGNVFSCSVMHEALHNHYTQKSLSLSPGK
notes: also called ADAM-17 disintegrin-Fc polypeptide
B3: ADAM-20dis-Fc (Fc fusion)
chain: TSCGNLVVEEGEECDCGTIRQCAKDPCCLLNCTLHPGAACAFGICCKDCKFLPSGTLCRQQVGECDLPEWCNGTSHQCPDDVYVQDGISCNVNAFCYEKTCNNHDIQCKEIFGQDARSASQSCYQEINTQGNRFGHCGIVGTTYVKCWTPDIMCGRVQCENVGVIPNLIEHSTVQQFHLNDTTCWGTDYHLGMAIPDIGEVKDGTVCGPEKICIRKKCASMVHLSQACQPKTCNMRGICNNKQHCHCNHEWAPPYCKDKGYGGSADSGPPPKNNMEGLNVMGKLRGSCDKTHTCPPCPAPEAEGAPSVFLFPPKPKDTLMISRTPEVTCVVVDVSHEDPEVKFNWYVDGVEVHNAKTKPREEQYNSTYRVVSVLTVLHQDWLNGKEYKCKVSNKALPAPIEKTISKAKGQPREPQVYTLPPSRDELTKNQVSLTCLVKGFYPSDIAVEWESNGQPENNYKTTPPVLDSDGSFFLYSKLTVDKSRWQQGNVFSCSVMHEALHNHYTQKSLSLSPGK
notes: also called ADAM-20 disintegrin-Fc polypeptide
B4: ADAM-22dis-Fc (Fc fusion)
chain: TSCGNGFIETGEECDCGTPAECVLEGAECCKKCTLTQDSQCSDGLCCKKCKFQPMGTVCREAVNDCDIRETCSGNSSQCAPNIHKMDGYSCDGVQGICFGGRCKTRDRQCKYIWGQKVTASDKYCYEKLNIEGTEKGNCGKDKDTWIQCNKRDVLCGYLLCTNIGNIPRLGELDGEITSTLVVQQGRTLNCSGGHVKLEEDVDLGYVEDGTPCGPQMMCLEHRCLPVASFNFSTCLSSKEGTICSGNGVCSNELKCVCNRHWIGSDCNTYFPHNDDAKTGITLSGNGVAGTNGSCDKTHTCPPCPAPEAEGAPSVFLFPPKPKDTLMISRTPEVTCVVVDVSHEDPEVKFNWYVDGVEVHNAKTKPREEQYNSTYRVVSVLTVLHQDWLNGKEYKCKVSNKALPAPIEKTISKAKGQPREPQVYTLPPSRDELTKNQVSLTCLVKGFYPSDIAVEWESNGQPENNYKTTPPVLDSDGSFFLYSKLTVDKSRWQQGNVFSCSVMHEALHNHYTQKSLSLSPGK
notes: also called ADAM-22 disintegrin-Fc polypeptide
B5: ADAM-21dis-Fc (Fc fusion)
chain: TSCGNGVVEREEQCDCGSVQQCEQDACCLLNCTLRPGAACAFGLCCKDCKFMPSGELCRQEVNECDLPEWCNGTSHQCPEDRYVQDGIPCSDSAYCYQKRCNNHDQHCREIFGKDAKSASQNCYKEINSQGNRFGHCGINGTTYLKCHISDVFCGRVQCENVRDIPLLQDHFTLQHTHINGVTCWGIDYHLRMNISDIGEVKDGTVCGPGKICIHKKCVSLSVLSHVCLPETCNMKGICNNKHHCHCGYGWSPPYCQHRGYGGSIDSGPASAKRSCDKTHTCPPCPAPEAEGAPSVFLFPPKPKDTLMISRTPEVTCVVVDVSHEDPEVKFNWYVDGVEVHNAKTKPREEQYNSTYRVVSVLTVLHQDWLNGKEYKCKVSNKALPAPIEKTISKAKGQPREPQVYTLPPSRDELTKNQVSLTCLVKGFYPSDIAVEWESNGQPENNYKTTPPVLDSDGSFFLYSKLTVDKSRWQQGNVFSCSVMHEALHNHYTQKSLSLSPGK
notes: also called ADAM-21 disintegrin-Fc polypeptide
B6: ADAM-23dis-Fc (Fc fusion)
chain: TSCGNGYVEAGEECDCGFHVECYGLCCKKCSLSNGAHCSDGPCCNNTSCLFQPRGYECRDAVNECDITEYCTGDSGQCPPNLHKQDGYACNQNQGRCYNGECKARDNQCQYIWGTKAAGSDKFCYEKLNTEGTEKGNCGKDGDRWIQCSKHDVFCGFLLCTNLTRAPRIGQLQGEIIPTSFYHQGRVIDCSGAHVVLDDDTDVGYVEDGTPCGPSMMCLDRKCLQIQALNMSSCPLDSKGKVCSGHGVCSNEATCICDFTWAGTDCSIRDPVRNLHPPKDEGPKGPSATNRSCDKTHTCPPCPAPEAEGAPSVFLFPPKPKDTLMISRTPEVTCVVVDVSHEDPEVKFNWYVDGVEVHNAKTKPREEQYNSTYRVVSVLTVLHQDWLNGKEYKCKVSNKALPAPIEKTISKAKGQPREPQVYTLPPSRDELTKNQVSLTCLVKGFYPSDIAVEWESNGQPENNYKTTPPVLDSDGSFFLYSKLTVDKSRWQQGNVFSCSVMHEALHNHYTQKSLSLSPGK
notes: also called ADAM-23 disintegrin-Fc polypeptide

Target: T1, integrin αvβ3 (human, UniProt P06756 31-1048; P05106 27-788)
T1 construct: whole, on cells; Native integrin on primary human dermal microvascular endothelial cells (HMVEC-d); also called CD51/61
Test: flow cytometry on HMVEC-d; dis-Fc binding with 5-8 fold excess mAb LM609 (competitor) vs control mAb
Procedure: (§1) Prior to performing binding studies, HMVEC-d were removed from culture vessels using trypsin-EDTA. The cells were washed in media containing serum and resuspended in binding medium which consisted of PBS containing 1 mM Ca2+, 1 mM Mg2+ and 0.5 mM Mn2+, 0.1% sodium azide, 10% Normal goat serum, 2% rabbit serum and 2% fetal bovine serum.
(§2) One hundred microliters of cell suspension, containing 200,000 to 500,000 HMVEC-d, were added to 12×75 mm plastic test tubes. Monoclonal antibodies specific for one of the integrins, or a control monoclonal antibody (CD29 or M15), were added to the cell suspensions at a concentration of 100 μg/ml (5-8 fold mass excess) 15 minutes prior to addition of disintegrin-Fc fusion proteins. ADAM disintegrin-Fc polypeptides and control Fc fusion polypeptides (P7.5II.Fc) were added, at various concentrations from 12.5 to 20 μg/ml, to the cell suspensions and incubated for 1 hour at 30° C. Unbound Fc polypeptides were washed away by centrifugation of cells in 2 mls of binding media. The washed cell pellets were resuspended in binding medium and then incubated at 30° C. for 30 minutes with goat anti-human Fc-specific biotinylated antibody at a concentration of 2.5 μg/ml for 30 minutes. After centrifugation and washing of the cell pellets, the cells were resuspended in binding medium and bound anti-human Fc-biotin was detected by adding streptavidin-phycoerythrin conjugate to the cell suspension at a 1:1000 dilution (1 μg/ml) and incubating at 30° C. for 30 minutes. The unbound streptavidin-phycoerythrin was washed away and the cells were resuspended in binding medium containing propidum iodide. The level of fluorescent binding (disintegrin-Fc binding) was determined by flow cytometry.
(§3) The level of binding of each ADAM disintegrin-Fc polypeptide was determined in the presence of anti-integrin specific mAb and in the presence of control mAb. Both the intensity of binding (MFI) and the percentage of cells binding were determined. Percent inhibition was calculated using the formula [1-(MFI control-MFI integrin mAb)/MFI control.

Compared with B1, B2 is lower in “percent inhibition of binding” value: 60% for the first, 50% for the second.

Going from B3 to B4, the “percent inhibition of binding” value falls from 58% to 42%.

Target: T2, integrin α5β1 (human, UniProt P08648 42-1049; P05556 21-798)
T2 construct: whole, on cells; Native integrin on HMVEC-d; also called CD49e
Test: flow cytometry on HMVEC-d; dis-Fc binding with 5-8 fold excess mAb SAM-1 (competitor) vs control mAb
Procedure: as §1, §2, §3

Going from B1 to B5, the “percent inhibition of binding” value rises from 30% to 54%.

Going from B4 to B6, the “percent inhibition of binding” value rises from 36% to 49%.
